Patent publication US20070274991A1 (published 2007)

Molecular target: T1, intact EGFR expressed on human mammary epithelial cells (HMECs) (human, UniProt P00533 25-1210)
T1 construct: whole, on cells; also called wild-type EGFR
Assay: radiolabeled antibody on parental HMECs
Procedure: To measure the effect on EGFR and EGFRvIII signaling of a given antibody binding to EGFR or EGFRvIII, radiolabeled antibodies were added to cultures of the HMECs described in the table above. […] When a non-neutralizing radiolabeled antibody binds to EGFR on a mammalian cell, the antibody will be internalized at a high rate if a ligand is present or if the EGFR is constitutively signaling for some other reason. When a neutralizing radiolabeled antibody binds to EGFR, signaling will stop and signaling-stimulated endocytosis will also stop.
In brief, radiolabelled antibodies were added to culture parental HMECs and to HMECs expressing EGFRvIII. At times of 0, 1, 2, 3, 5 and 10 minutes, cell samples were withdrawn, washed, and then acid-stripped to remove and measure surface-bound radiolabeled antibody. The cells were then lysed and the remaining radiolabel was measured to determine levels of internalized antibody.

B1: EMD72000 (antibody, V domains shown)
VH: QVQLVQSGAEVKKPGASVKVSCKASGYTFTSHWMHWVRQAPGQGLEWIGEFNPSNGRTNYNEKFKSKATMTVDTSTNTAYMELSSLRSEDTAVYYCASRDYDYDGRYFDYWGQGTLVTVS
VL: DIQMTQSPSSLSASVGDRVTITCSASSSVTYMYWYQQKPGKAPKLLIYDTSNLASGVPSRFSGSGSGTDYTFTISSLQPEDIATYYCQQWSSHIFTFGQGTKVEIK
notes: Used fluorescently labeled in yeast display and radiolabeled in the internalization assay; also called anti-EGFR antibody EMD72000; humanized version of the murine antibody 425
B1: binds.
